From patent US12551542B2, “Polymeric nanoparticles that target liver sinusoidal endothelial cells to induce antigen-specific immune tolerance” (The Regents of the University of California, priority 2019, dated 2026)
No end group written: not given here.

Key:
LSECs = test: NP-associated FITC-OVA uptake, flow cytometry; format: cell-based, mouse
Description: Following OVA-FITC labeling, the antigen was encapsulated in NPs as described in Example 1 Materials and Methods. LSECs and KUP5 cells were incubated with FITC-OVA or NP^FITC-OVA for the indicated time periods. After being washed in PBS, the % FITC-OVA^+ cells and the cellular mean fluorescence intensity (MFI) were analyzed in a BD LSRII (IMED) analytic flow cytometer by Flowjo® software. Panels (A, B): Kinetics of NP-mediated antigen uptake in LSECs and KUP5 cells, respectively. Panels (C, D): Histograms depicting the % and MFI of antigen-positive LSECs. Data are expressed as the mean±SEM (n=6); *p<0.05; **p<0.01; ***[…] (one-way ANOVA followed by Tukey's test).
To quantitatively evaluate antigen uptake into cells, OVA was labeled with FITC as previously described. Following the incorporation of FITC-OVA into NPs, LSECs and KUP5 cells were incubated with FITC-OVA or the labeled particles for 24 h. Cells were collected, washed with PBS, and analyzed in a BD LSRII (IMED) analytic flow cytometer. Flowjo software (Ashland, OR) was used to quantify the percentage and mean fluorescence intensity of the FITC-OVA+-labeled cells.

mice = test: Biodistribution of DyLight680-OVA NPs after IV injection, ex vivo IVIS imaging; parameters: species or system mouse; conditions: 25 μg OVA in 500 μg NPs per animal, 24 h
From the text: Panel (B): Confocal microscopy to show the intrahepatic distribution of free or encapsulated labeled OVA. […] The red and green fluorescence colors represent DyLight680-labeled OVA and isolectin B4 stained LSECs, respectively. Scale bars correspond to 50 μm. Data are expressed as the mean±SEM (n=6); *p<0.05; **p<0.01; ***[…] (one-way ANOVA followed by Tukey's test).
FIG. 17A schematically illustrates two main strategies for inducing immune tolerance. Strategy 1 depicts a liver-targeting nanoparticle for allergen delivery to LSEC in the liver, where allergen processing and presentation to naïve T-cells induce antigen-specific Foxp3^+ Tregs, which are recruited to the site of allergic inflammation in the lung. […] FIG. 17B schematically illustrates the PLGA nanoparticle synthesis process, including carrier loading with cargo (allergen, epitopes, pharmaceutical agents), by a w/o/w double emulsion method combined with solvent removal. […] The red and green fluorescence colors represent Dylight680-labeled OVA and isolectin B4 stained LSECs, respectively. […]
The near-infrared fluorescent dye, DyLight680 (ex=692, em=712), was used to label OVA, which was subsequently encapsulated in the NPs. […] The data were analyzed using Living Image software (PerkinElmer, version 4.5) and were expressed as the fluorescence intensity in the region of interest. […]

[1] = biological target: stabilin-2 scavenger receptor on liver sinusoidal endothelial cells (LSECs) (mouse, UniProt Q8R4U0 29-2559); test: cell-based or functional assay
Sequence of stabilin-2 scavenger receptor on liver sinusoidal endothelial cells (LSECs) (Q8R4U0 29-2559): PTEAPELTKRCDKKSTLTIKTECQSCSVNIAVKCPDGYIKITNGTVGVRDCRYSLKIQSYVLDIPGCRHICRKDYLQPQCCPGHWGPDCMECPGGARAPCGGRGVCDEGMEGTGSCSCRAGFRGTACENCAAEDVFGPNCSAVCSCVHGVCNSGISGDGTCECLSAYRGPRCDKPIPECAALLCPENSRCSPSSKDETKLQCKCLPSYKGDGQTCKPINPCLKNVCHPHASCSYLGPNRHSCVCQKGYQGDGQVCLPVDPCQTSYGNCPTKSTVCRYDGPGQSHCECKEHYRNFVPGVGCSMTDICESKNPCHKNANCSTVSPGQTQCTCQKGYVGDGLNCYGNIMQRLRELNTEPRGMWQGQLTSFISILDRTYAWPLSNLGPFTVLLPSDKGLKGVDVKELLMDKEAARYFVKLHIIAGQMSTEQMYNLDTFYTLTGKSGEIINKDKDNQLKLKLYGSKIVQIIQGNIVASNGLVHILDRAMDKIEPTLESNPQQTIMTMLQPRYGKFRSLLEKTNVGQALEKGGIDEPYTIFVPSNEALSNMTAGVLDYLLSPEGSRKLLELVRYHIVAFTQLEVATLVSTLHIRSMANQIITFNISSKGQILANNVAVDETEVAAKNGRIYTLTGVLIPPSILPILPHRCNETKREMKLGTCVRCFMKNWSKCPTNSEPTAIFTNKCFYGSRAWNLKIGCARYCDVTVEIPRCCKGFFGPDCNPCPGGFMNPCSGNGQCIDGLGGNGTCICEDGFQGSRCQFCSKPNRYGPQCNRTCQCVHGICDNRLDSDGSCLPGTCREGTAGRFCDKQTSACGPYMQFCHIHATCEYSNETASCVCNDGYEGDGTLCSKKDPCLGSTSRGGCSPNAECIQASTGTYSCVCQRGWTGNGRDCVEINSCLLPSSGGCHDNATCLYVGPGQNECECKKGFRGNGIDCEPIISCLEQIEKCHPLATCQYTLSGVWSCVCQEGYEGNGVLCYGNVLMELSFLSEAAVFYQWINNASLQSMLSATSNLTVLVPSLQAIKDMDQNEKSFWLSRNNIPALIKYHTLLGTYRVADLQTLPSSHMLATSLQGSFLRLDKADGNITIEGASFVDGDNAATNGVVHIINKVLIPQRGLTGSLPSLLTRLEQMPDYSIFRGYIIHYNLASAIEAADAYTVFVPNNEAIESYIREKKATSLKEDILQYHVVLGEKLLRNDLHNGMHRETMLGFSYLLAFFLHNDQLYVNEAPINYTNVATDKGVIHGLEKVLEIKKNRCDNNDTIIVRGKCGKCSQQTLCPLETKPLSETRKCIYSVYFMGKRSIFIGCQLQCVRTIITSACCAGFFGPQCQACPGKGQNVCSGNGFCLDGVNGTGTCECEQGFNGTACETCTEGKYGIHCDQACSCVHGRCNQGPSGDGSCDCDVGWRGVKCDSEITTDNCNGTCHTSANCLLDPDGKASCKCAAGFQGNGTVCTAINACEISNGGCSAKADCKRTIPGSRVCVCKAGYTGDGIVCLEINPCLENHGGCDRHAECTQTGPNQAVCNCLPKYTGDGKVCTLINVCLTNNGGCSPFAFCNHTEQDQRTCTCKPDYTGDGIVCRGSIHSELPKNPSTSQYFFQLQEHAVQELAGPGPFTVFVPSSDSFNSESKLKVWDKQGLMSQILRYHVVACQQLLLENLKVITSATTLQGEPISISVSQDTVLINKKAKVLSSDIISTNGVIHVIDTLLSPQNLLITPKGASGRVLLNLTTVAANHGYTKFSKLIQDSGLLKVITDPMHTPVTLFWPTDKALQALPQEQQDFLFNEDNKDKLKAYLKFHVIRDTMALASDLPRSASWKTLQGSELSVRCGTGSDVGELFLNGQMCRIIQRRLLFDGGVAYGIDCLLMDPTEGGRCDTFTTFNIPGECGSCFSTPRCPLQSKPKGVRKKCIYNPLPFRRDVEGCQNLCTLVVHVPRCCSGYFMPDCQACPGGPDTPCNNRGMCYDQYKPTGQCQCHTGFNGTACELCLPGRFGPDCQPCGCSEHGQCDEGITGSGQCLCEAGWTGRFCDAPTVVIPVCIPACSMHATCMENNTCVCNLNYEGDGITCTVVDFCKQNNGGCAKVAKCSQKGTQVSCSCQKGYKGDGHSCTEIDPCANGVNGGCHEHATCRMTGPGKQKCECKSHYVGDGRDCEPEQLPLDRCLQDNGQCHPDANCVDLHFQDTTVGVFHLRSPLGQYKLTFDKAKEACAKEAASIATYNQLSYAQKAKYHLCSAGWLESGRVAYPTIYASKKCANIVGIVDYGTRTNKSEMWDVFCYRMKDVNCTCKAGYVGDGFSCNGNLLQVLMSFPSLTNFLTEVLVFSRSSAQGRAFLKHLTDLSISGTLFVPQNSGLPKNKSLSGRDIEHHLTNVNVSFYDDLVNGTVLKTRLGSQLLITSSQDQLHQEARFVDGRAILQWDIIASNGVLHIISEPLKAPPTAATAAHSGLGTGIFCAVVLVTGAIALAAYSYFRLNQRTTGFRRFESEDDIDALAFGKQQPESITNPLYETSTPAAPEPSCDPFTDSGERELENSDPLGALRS

[2] = biological target: stabilin-1 scavenger receptor on liver sinusoidal endothelial cells (LSECs) (mouse, UniProt Q8R4Y4 26-2571); test: cell-based or functional assay
Sequence of stabilin-1 scavenger receptor on liver sinusoidal endothelial cells (LSECs) (Q8R4Y4 26-2571): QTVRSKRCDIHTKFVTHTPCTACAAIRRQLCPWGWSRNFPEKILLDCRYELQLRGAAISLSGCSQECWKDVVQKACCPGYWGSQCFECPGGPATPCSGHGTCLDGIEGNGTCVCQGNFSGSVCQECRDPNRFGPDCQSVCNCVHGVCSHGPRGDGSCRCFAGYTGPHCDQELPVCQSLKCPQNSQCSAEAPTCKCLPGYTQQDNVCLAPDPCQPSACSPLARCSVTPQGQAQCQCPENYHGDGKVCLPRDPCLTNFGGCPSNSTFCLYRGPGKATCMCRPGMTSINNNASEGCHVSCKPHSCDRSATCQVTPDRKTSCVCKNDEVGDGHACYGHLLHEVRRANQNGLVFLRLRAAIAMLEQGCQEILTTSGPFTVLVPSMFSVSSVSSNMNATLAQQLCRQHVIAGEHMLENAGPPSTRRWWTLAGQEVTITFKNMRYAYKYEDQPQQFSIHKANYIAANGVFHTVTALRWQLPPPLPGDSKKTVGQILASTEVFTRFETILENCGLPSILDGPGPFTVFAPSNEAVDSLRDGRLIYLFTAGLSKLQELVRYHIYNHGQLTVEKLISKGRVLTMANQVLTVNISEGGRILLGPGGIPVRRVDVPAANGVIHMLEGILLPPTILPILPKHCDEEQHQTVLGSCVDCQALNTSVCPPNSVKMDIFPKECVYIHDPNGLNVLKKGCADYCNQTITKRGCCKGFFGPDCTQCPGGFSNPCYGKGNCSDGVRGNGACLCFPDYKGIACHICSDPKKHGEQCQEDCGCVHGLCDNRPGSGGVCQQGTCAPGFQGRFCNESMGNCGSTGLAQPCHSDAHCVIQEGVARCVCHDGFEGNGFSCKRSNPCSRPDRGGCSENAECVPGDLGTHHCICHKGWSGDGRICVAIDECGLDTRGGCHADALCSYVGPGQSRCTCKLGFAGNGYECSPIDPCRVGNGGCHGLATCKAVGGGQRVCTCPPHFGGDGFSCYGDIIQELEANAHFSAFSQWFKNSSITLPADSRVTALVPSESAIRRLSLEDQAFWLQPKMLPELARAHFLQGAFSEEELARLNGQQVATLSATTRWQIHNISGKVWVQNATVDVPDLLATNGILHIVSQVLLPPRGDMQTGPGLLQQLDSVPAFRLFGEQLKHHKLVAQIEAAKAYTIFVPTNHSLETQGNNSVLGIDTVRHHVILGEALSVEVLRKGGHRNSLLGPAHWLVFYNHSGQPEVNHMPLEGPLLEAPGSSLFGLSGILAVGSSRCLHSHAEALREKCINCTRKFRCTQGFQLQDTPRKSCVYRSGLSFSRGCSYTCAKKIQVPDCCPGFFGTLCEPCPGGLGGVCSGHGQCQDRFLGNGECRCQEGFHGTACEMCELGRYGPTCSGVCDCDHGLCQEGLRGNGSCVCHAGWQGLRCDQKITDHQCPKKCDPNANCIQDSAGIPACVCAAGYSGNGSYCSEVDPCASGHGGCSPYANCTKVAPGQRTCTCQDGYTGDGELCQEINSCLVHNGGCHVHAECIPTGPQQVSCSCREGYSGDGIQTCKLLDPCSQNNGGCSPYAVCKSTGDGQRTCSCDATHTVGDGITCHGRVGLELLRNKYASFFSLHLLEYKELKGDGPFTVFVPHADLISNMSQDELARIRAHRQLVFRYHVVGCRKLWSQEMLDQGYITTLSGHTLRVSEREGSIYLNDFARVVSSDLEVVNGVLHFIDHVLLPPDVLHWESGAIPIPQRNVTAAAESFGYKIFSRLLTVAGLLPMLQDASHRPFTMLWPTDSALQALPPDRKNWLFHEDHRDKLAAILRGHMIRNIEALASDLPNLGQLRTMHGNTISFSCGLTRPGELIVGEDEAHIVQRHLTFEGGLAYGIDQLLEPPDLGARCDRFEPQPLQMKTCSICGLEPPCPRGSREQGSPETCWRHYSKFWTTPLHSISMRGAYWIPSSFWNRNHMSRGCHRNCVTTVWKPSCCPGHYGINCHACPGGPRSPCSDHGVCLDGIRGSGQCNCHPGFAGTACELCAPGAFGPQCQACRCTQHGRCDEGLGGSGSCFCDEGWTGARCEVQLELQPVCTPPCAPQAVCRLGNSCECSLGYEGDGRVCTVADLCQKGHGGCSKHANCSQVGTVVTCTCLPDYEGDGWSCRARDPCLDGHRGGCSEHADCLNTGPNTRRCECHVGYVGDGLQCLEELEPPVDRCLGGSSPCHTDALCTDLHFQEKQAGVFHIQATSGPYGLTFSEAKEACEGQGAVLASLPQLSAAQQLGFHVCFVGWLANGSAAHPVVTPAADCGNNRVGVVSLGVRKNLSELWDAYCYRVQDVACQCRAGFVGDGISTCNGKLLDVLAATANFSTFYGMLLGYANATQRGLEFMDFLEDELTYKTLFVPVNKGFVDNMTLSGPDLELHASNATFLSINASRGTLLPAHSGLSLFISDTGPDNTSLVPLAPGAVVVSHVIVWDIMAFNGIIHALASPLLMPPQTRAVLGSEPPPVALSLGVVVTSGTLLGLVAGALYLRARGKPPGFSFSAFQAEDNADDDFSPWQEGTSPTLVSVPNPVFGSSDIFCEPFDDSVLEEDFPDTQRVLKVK

“FITC-OVA: fluorescein isothiocyanate (FITC)-labeled OVA, not encapsulated” was tested, and the “NP-mediated FITC-OVA uptake (OVA fluorescence intensity)” value (LSECs) was “No significant uptake”.

B1: non-encapsulated fluorescent OVA: DyLight680-labeled ovalbumin injected free, not encapsulated (protein, UniProt P01012 2-386, looked up)
Ovalbumin: GSIGAASMEFCFDVFKELKVHHANENIFYCPIAIMSALAMVYLGAKDSTRTQINKVVRFDKLPGFGDSIEAQCGTSVNVHSSLRDILNQITKPNDVYSFSLASRLYAEERYPILPEYLQCVKELYRGGLEPINFQTAADQARELINSWVESQTNGIIRNVLQPSSVDSQTAMVLVNAIVFKGLWEKAFKDEDTQAMPFRVTEQESKPVQMMYQIGLFRVASMASEKMKILELPFASGTMSMLVLLPDEVSGLEQLESIINFEKLTEWTSSNVMEERKIKVYLPRMKMEEKYNLTSVLMAMGITDVFSSSANLSGISSAESLKISQAVHAAHAEINEAGREVVGSAEAGVDAASVSEEFRADHPFLFCIKHIATNAVLFFGRCVSP
modifications: DyLight680 label
For B1, the “organ distribution of labeled OVA (IVIS)” value (mice) was “kidney”.

B2: ApoB peptide (ApoBP), RLYRKRGLK, containing a GGC tag, conjugated to the surface of OVA-encapsulating PLGA nanoparticles (peptide)
peptide: RLYRKRGLK
modifications: also: GGC tag at one end, orientation unclear, tag Cys thioether-linked to maleimide (NAEM) on PLGA nanoparticle
With B2 the “percentage of OVA-positive LSECs (flow cytometry, uptake of nanoparticle-encapsulated FITC-OVA)” value [1] was roughly 2 fold and the “percentage of OVA-positive LSECs (flow cytometry, uptake of nanoparticle-encapsulated FITC-OVA)” value [2] was roughly 2 fold.
